Our source for the Kd values is article PMC4329188, “Expression, purification, crystallization, and preliminary X-ray crystallographic studies of the human adiponectin receptors, AdipoR1 and AdipoR2” (Journal of Structural and Functional Genomics, 2015).

In the assay the target is T1, purified AdipoR1Δ88 (human adiponectin receptor 1, residues 89–375), as used for SPR and antibody screening (human, UniProt Q96A54 89-375).
T1 construct: adiponectin receptor 1 (AdipoR1), human, residues 89-375 (N-terminally truncated mutant Δ88); Same construct as m1; SDS-denatured in the dot blot; source: Trichoplusia ni (High Five) insect cells, baculovirus; purified; reconstituted into liposomes for SPR and ELISA
T1 sequence (looked up): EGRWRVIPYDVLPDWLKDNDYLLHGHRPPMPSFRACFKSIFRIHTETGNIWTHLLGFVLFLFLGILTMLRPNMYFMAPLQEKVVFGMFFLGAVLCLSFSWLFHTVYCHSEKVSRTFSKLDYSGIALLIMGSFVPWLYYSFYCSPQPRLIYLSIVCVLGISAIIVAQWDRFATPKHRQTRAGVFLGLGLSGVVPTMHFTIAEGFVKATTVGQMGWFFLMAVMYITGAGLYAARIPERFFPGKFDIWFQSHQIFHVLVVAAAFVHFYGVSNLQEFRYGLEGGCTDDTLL
Nature of the assay: SPR; purified AdipoR1Δ88 reconstituted into liposomes (egg yolk PC, biotinyl-PE) and immobilised on a sensor chip SA; osmotin 0.5–8 μM as analyte; Biacore T200. Conditions: both partners purified.

B1: osmotin (ligand)
chain: ATIEVRNNCPYTVWAASTPIGGGRRLDRGQTWVINAPRGTKMARVWGRTNCNFNAAGRGTCQTGDCGGVLQCTGWGKPPNTLAEYALDQFSGLDFWDISLVDGFNIPMTFAPTNPSGGKCHAIHCTANINGECPRELRVPGGCNNPCTTFGGQQYCCTQGPCGPTFFSKFFKQRCPDAYSYPQDDPTSTFTCPGGSTNYRVIFCPNGQAHPNFPLEMPGSDEVAK
In turn, B1 returned a Kd of 700 nM.
